This is an account of results in patent US20240251767A1 (LEVERAGEN, published 2024).

Read-outs that look alike come from different tables or passages of the source.

The target of assay [1] is T1, SARS-Cov2 Spike Active Trimer SAT (R&D Systems; Catalog No. 10549-CV) (SARS-CoV2, UniProt P0DTC2 16-1211).
Assay [2] has as its target T1, SARS-Cov2 Spike Active Trimer SAT (R&D …). Kind of assay: SPR (Carterra).
Assay [3] shares this target. The experiment in a line: ELISA, serially diluted purified Nb-Fc on SAT antigen.
Assay [4] has the same target.

B1: MS329_5 Nb-human Fc fusion (Fc fusion, not shown: a dimerising Fc or GST)
VH: EVQLQQSGPELVKPGASVKMSCKASGYTFTDYYIKWEKQSHGKSLEWIGDINPKNGETFYNQQFKGKATLTVDKSSSTAYMQLNSLTSEDSAVYYCARKEYGDYGYAVDYWGQGTSVTVSS
notes: also called LVGN-S3205; LVGN-53205
In assay [1], B1 had a dissociation constant Kd of 1.06 nM, a koff of 0.000143 s⁻¹ and a kon of 135000 M⁻¹ s⁻¹. Further, in assay [2], the Kd was determined as 3.17 nM. The molecule also came in with an EC50 in assay [3] of 0.024 nM. This molecule also registered a Kd in assay [4] of 1.21 nM.

B2: M2S521_378 Nb-human Fc fusion (Fc fusion, not shown: a dimerising Fc or GST)
VH: EVQLQQSGPELVKPGASVKISCKASGYTFTDYYMKWVKQSHGKSLEWIGDINPKNGGTNYNQKFKDKATLTVDKSSSTAYMELRSLTSEDSAVYYCARLEDGYYGYAIDYWSQGTSVTVSS
notes: also called LVGN-S231378; LVGN-S521378
In assay [3], B2 registered an EC50 of 0.081 nM.
